Experimental findings from paper PMC11446271 are described below.

By Kd is commonly meant the constant that tells how readily two partners part at equilibrium. Read a low Kd as higher affinity.

The subject of data set [1] is Pab1p (poly(A)-binding protein) (Saccharomyces cerevisiae). Description: single-molecule eIF1 dwell time, hyperbolic fit. As to conditions: 5' cap, 3' poly(A) tail.
Data set [2] shares this test system. Description: EMSA. For orientation: Mobility shift assays separate free from complexed probe on a gel.

Substance PAB1 mRNA, capped and poly(A)-tailed showed a Kd in data set [1] of 0.013 µM.

PAB1 mRNA, non-polyadenylated came in with a Kd in data set [2] of 0.025 µM.
